Publication PMC1142404 (Nucleic Acids Research, 2005)
Each block holds one binder with its values, some of them ahead of it.

How the values were obtained:
aCBF5 = biological target: T1, aCBF5 (Pyrococcus abyssi GE5, UniProt Q9V1A5 1-334); experiment: EMSA
T1 sequence: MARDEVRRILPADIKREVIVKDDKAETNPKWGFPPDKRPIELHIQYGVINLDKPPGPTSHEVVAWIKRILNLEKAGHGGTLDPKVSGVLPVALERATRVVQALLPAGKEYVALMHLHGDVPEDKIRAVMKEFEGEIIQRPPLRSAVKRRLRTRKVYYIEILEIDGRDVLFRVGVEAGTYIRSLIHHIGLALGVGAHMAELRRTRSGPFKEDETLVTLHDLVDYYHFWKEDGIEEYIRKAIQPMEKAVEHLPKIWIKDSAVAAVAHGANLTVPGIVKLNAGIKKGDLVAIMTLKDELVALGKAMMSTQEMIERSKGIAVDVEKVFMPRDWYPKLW

aCBF5;aNOP10 = biological target: T2, aCBF5;aNOP10 (Pyrococcus abyssi GE5;Pyrococcus abyssi …, UniProt Q9V1A5;Q9V0E3 1-334;1-60, |); experiment: EMSA
T2 sequence 1: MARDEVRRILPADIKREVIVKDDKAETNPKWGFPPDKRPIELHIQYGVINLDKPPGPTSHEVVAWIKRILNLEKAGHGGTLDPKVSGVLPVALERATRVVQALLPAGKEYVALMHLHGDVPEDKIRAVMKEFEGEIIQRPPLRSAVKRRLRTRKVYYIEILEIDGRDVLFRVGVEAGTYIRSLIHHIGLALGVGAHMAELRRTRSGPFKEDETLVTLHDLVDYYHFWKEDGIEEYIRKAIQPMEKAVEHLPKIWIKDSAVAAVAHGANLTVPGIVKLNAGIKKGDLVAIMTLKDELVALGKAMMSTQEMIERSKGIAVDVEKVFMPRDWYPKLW
T2 sequence 2: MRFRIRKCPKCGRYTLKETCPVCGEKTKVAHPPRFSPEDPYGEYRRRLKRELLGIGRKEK

[1] = biological target: T3, aCBF5 protein (archaeal CBF5 RNA:Ψ-synthase), Pyrococcus abyssi, cleaved from GST (Pyrococcus abyssi, UniProt Q9V1A5 1-334); experiment: pull-down
T3 sequence (looked up): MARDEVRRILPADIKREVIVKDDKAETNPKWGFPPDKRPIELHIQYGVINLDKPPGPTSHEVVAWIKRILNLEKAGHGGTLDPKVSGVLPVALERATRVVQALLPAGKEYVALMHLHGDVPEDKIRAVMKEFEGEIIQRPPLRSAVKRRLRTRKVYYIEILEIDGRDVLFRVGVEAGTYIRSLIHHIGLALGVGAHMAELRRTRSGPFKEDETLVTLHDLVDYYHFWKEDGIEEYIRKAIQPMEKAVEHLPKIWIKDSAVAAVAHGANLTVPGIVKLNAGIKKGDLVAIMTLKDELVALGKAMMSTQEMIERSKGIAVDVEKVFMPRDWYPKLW

[2] = biological target: T3, aCBF5 protein (archaeal CBF5 …); experiment: native gel or EMSA

B1: Pab91mtGA (structured_RNA)
RNA: GGGUAAUGCCCCUCCCCUCUCACACCUCCGGGAUCAGUCCCCGGAGGGCGGUCGGGGAGGGGACACCU
binding result (aCBF5): binds
binding result (aCBF5;aNOP10): binds

binding result [1]: binds
B2: GST-aNOP10 fusion protein (natural protein, Pyrococcus abyssi, UniProt Q9V0E3 1-60, looked up)
chain: MRFRIRKCPKCGRYTLKETCPVCGEKTKVAHPPRFSPEDPYGEYRRRLKRELLGIGRKEK

binding result [2]: binds
B3: aNOP10 protein, Pyrococcus abyssi, cleaved from GST (natural protein, UniProt Q9V0E3 1-60, looked up)
chain: MRFRIRKCPKCGRYTLKETCPVCGEKTKVAHPPRFSPEDPYGEYRRRLKRELLGIGRKEK
